The target of experiment [1] is T1, mouse ICOS-mFc (Chimerigen) (mouse, UniProt Q9WVS0 21-141, limits assumed).
T1 construct: Bought; also called recombinant mouse ICOS protein; mICOS; not shown: mouse Fc of the bought fusion
T1 sequence: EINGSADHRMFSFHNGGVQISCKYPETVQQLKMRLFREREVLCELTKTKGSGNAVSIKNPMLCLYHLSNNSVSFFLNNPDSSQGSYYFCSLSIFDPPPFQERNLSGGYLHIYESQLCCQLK
Kind of experiment: DELFIA ELISA on coated mouse ICOS-mFc, N=3. The method, then: (§1) Recombinant ICOS proteins, human ICOS-mFc or mouse ICOS-mFc (Chimerigen) were diluted in 1×PBS and added to Black Hi-bind plates (Griener) at 1 μg/ml, 50 μl/well. Recombinant PD-L1 proteins, human PD-L1-Flag-His or mouse-His were diluted in 1×PBS and added to Black Hi-bind plates (Griener) at 4 μg/ml, 50 μl/well. The plates were left overnight at 4° C. The next day plates were washed 3× with 300 μl/well of 1×PBS+0.1% Tween and blocked with 200 ul/well of 1×PBS+1% BSA blocking buffer for 1 hr at RT on a plate shaker. Plates were washed 3× with 300 μl/well of 1×PBS+0.1% Tween.
(§2) However, human-PD-L1 mAb² antibodies were diluted in 1×PBS+0.1% BSA buffer and diluted 1 in 2 from a starting working concentration of 0.066 μM over an 11 point titration. Titrated antibodies were added to the plates, 50 μl/well and left to incubate for 1 hr at R.T on a plate shaker. Plates were washed 3× with 300 μl/well of 1×PBS+0.1% Tween.
(§3) DELFIA® Eu-labelled Anti-human IgG (Perkin-Elmer) was diluted 1:500 in DELFIA Assay buffer (Perkin-Elmer) and added to the assay plate (50 μl/well), left to incubate for 1 hr at RT on a plate shaker. […] After incubation, assay was read on Envision plate reader (Perkin Elmer), Time-resolved fluorescence (TRF) was measured at 615 nm.
A general note: ELISA stands for enzyme-linked immunosorbent assay.

For experiment [2], the target named is T1, mouse ICOS-mFc (Chimerigen). Kind of experiment: HTRF, mouse ICOS-mFc, competitor mouse B7-H2-Alexa 647, n3. The procedure:
5 μl of human ICOS-mFc (Chimerigen) at 20 nM (5 nM final) or 5 ul of mouse ICOS-mFc (Chimerigen) at 4 nM (1 nM final) were added to relevant assay wells. Plate was incubated for 1 hour (hr) at room temperature (RT).
After incubation, assay was read on Envision plate reader (Perkin Elmer) using a standard HTRF protocol. 620 nm and 665 nm channel values were exported to Microsoft Excel and % Delta-F and % Neutralisation calculations performed. Titration curves and IC50 values [M] were plotted using Graphpad (Prism). IC50 values were calculated by first transforming the data using equation X=Log(X). The transformed data was then fitted using nonlinear regression, using fitting algorithm, log (inhibitor) vs. response—variable slope (four parameters).
Background: TR-FRET usually uses a lanthanide donor and a delayed reading to cut background.

Experiment [3] deals with T2, mouse ICOS expressed on CHO cells (mouse, UniProt Q9WVS0 21-200).
T2 construct: also called CHO-S cells transfected with mouse ICOS; mICOS
T2 sequence (looked up): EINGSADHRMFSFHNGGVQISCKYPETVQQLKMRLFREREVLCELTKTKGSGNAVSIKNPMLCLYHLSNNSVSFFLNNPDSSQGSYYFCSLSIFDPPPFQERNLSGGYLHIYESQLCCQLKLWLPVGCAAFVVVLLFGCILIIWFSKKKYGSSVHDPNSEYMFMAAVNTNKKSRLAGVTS
Kind of experiment: Flow cytometry on CHO-S mouse ICOS cells, anti-human IgG AF647, N=3. The procedure: (§4) CHO—S cells transfected with either human ICOS or mouse ICOS were resuspended in FACS buffer (PBS+1% w/v BSA+0.1% w/v sodium azide) and transferred to a 96-well V-bottom plate (Greiner) at a density of 1×10⁵ cells per well. mAb and mAb² were titrated in FACS buffer, 1 in 3 dilution across 11 points from a starting working concentration of 400 nM. Plates were centrifuged at 300×g for 3 minutes, supernatant discarded and 50 μL mAb or mAb² solution were added to cells and incubated at 4° C. for 1 hour. Cells were washed with 150 μL of PBS and centrifuged at 300×g for 3 minutes, supernatant was discarded and cell pellet resuspended in 150 μL PBS added. This wash step was repeated twice. Bound mAb or mAb² was detected by addition of 50 μL of anti-human 647 (Jackson ImmunoResearch) diluted to 3 ug/ml in FACS buffer. Cells were incubated for 1 hour at 4° C. in the dark. Cells were washed with 150 μL of PBS and centrifuged at 300 g for 3 minutes, supernatant was discarded and cell pellet resuspended in 150 μL PBS added. This wash step was repeated twice. Cells were fixed with 25 μL 4% v/v paraformaldehyde, incubated for 20 minutes at 4° C., cells were pelleted by centrifugation at 300×g and the supernatant discarded. […] AlexaFluor 647 signal intensity (geometric mean) was measured by flow cytometry using a Beckman Coulter CytoFLEX instrument.
(In general: Flow cytometry measures light scatter and fluorescence of single cells or particles in a stream.)

Experiment [4] concerns the target T1, mouse ICOS-mFc (Chimerigen). Kind of experiment: DELFIA ELISA on coated mouse ICOS-mFc, N=1. The procedure:
as §1, §2, §3

The target in experiment [5] is T3, human ICOS expressed on cells (human, UniProt Q9Y6W8 21-199).
T3 construct: also called CHO-S cells transfected with human ICOS; hICOS
T3 sequence: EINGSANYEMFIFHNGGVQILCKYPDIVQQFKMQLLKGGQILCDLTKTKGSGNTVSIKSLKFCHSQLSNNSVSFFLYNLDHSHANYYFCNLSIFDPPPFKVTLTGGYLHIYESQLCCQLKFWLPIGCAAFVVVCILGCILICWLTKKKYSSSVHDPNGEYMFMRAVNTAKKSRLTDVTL
Briefly: Flow cytometry on CHO-S human ICOS cells, anti-human IgG AF647, N=2. The procedure:
as §4

Experiment [6] has as its target T3, human ICOS expressed on cells. Kind of experiment: Flow cytometry on CHO-S human ICOS cells, anti-human IgG AF647, mean. The method, then: as §4
For experiment [7], the target named is T2, mouse ICOS expressed on CHO cells. Kind of experiment: Flow cytometry on CHO-S mouse ICOS cells, anti-human IgG AF647, mean. The procedure: as §4

Drawing on patent US20240343810A1 (published 2024), this text covers EC50 and IC50 for two molecules.

B1: STIM003 (antibody, human IgG1, kappa)
heavy: not shown
light: EIVLTQSPGTLSLSPGERATLSCRASQSVSRSYLAWYQQKRGQAPRLLIYGASSRATGIPDRFSGDGSGTDFTLSISRLEPEDFAVYYCHQYDMSPFTFGPGTKVDIKRTVAAPSVFIFPPSDEQLKSGTASVVCLLNNFYPREAKVQWKVDNALQSGNSQESVTEQDSKDSTYSLSSTLTLSKADYEKHKVYACEVTHQGLSSPVTKSFNRGEC
notes: Anti-ICOS monospecific antibody, tested as human IgG1; also called STIM003 monoclonal IgG1 antibody
Take B1: the 50% effective concentration (EC50) (commonly the concentration that produces a half-maximal response) in experiment [1] worked out at 0.338 nM; in experiment [3] it was 7.28 nM; in experiment [4], 0.416 nM; in experiment [5], 4.89 nM; in experiment [6], 5.53 nM; in experiment [7], 5.42 nM. In addition, the 50% inhibitory concentration (IC50) – broadly, the midpoint of a concentration-inhibition curve – in experiment [2] turned out to be 0.11 nM.

B2: STIM001 (antibody, human IgG1, kappa)
heavy: not shown
light: DIVMTQSPLSLPVTPGEPASISCRSSQSLLHSNEYNYLDWYLQKPGQSPQLLIFLGSNRASGVPDRFSGSGSGTDFTLKITRVEAEDVGIYYCMQSLQTPLTFGGGTKVEIKRTVAAPSVFIFPPSDEQLKSGTASVVCLLNNFYPREAKVQWKVDNALQSGNSQESVTEQDSKDSTYSLSSTLTLSKADYEKHKVYACEVTHQGLSSPVTKSFNRGEC
notes: Anti-ICOS monospecific antibody, tested as human IgG1; also called STIM001 monoclonal IgG1 antibody
As for B2, the half-maximal effective concentration (EC50) is 1.73 nM in experiment [1]; 20.1 nM in experiment [3]; 11.4 nM in experiment [4]; 13.8 nM in experiment [5]; 21.2 nM in experiment [6]; 16.9 nM in experiment [7]. Further, in experiment [2], the IC50 was 9.25 nM.
